Publication PMC5698293, “Single-molecule visualization of conformational changes and substrate transport in the vitamin B12 ABC importer BtuCD-F” (Nature Communications, 2017)

Experiments:
[1] = biological target: T1, BtuCD-F (BtuCD with BtuF D141C), ATPase site (Escherichia coli, UniProt P06611, C180S); settings: 2 mM ATP, 10 mM MgCl2, pH 7.5, 30 °C; BtuCD WT with BtuF D141C
T1 construct: gene btuD

[2] = biological target: BtuCDcys (cysteine mutant of the vitamin B12 ABC importer BtuCD: BtuC Q111C/W115L, cys-less BtuC and BtuD), reconstituted in liposomes (Escherichia coli) (UniProt P06609)
[3] = biological target: BtuCDcys (cysteine mutant of the vitamin B12 ABC importer BtuCD: BtuC Q111C/W115L, cys-less BtuC and BtuD), reconstituted in liposomes (Escherichia coli) (UniProt P06609); assay: single-molecule fluorescence intensity change (TIRF microscopy); BtuCDcys labelled with Alexa Fluor 555 in 100-nm proteoliposomes (empty lumen, no ATP) tethered to glass by biotin-streptavidin; unlabelled BtuF added to the outside; 50 mM KPi, 200 mM KCl, pH 7.5; room temperature

| fraction of inside-out complexes that respond to ATP by a decrease of the Alexa Fluor 555 fluorescence of BtuCDcys (corrected for orientation; unlabelled BtuF in the lumen) [2] [%] | fraction of liposomes in which the Alexa Fluor 555 fluorescence of BtuCDcys decreased upon addition of 2 mM ATP and 10 mM Mg2+ on the outside (unlabelled BtuF in the lumen; no events without BtuF) [2] [%] | percent of right-side-out complexes with an increase in fluorescence upon addition of BtuF [3] [%] | percent of traces with an increase in fluorescence upon addition of BtuF [3] [%] | Compound | NADH-coupled PK/LDH ATPase assay in proteoliposomes [1] |
| --- | --- | --- | --- | --- | --- |
| – | – | – | – | Nc1ncnc2c1ncn2[C@@H]1O[C@H](COP(=O)(O)OP(=O)(O)OP(=O)(O)O)[C@@H](O)[C@H]1O [ATP] | ATPase rate of various BtuCD-F mutants with or without fluorescent label reconstituted in liposomes |
| 18 | 8 | 82 | 45 | BtuF D141C (periplasmic vitamin B12-binding protein, cys-less, signal peptide removed) (from UniProt P37028 23-266) (natural protein) | – |
